# In publication PMC3140970, “The Eps8/IRSp53/VASP Network Differentially Controls Actin Capping and Bundling in Filopodia Formation” (PLoS Computational Biology, 2011):
# T1: His-IRSp53 (UniProt Q9UQB8 1-552)
# T1 sequence (looked up): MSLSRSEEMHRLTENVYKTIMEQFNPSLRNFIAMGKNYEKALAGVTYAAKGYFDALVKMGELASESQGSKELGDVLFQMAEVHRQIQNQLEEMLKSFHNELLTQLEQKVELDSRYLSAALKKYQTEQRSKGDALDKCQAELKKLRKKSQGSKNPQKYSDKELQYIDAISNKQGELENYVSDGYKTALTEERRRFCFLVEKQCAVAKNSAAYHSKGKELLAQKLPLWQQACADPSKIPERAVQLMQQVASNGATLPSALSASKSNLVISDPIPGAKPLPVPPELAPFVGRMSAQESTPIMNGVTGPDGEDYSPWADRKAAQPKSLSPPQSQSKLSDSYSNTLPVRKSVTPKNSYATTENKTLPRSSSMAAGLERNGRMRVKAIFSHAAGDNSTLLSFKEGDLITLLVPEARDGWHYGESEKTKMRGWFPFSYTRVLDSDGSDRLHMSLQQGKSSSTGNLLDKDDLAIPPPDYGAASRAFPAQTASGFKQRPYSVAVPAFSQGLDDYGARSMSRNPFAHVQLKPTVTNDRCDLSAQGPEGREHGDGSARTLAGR
# Biological target: T1, His-IRSp53
# Test: far-Western, overlay or dot blot; 10 pmoles of His-IRSp53, GST-IRSp53-SH3 or BSA spotted onto nitrocellulose, incubated with increasing concentrations of purified VASP; anti-VASP immunoblot; fraction bound against total VASP; apparent dissociation constant
# Details: both partners purified
binder,measurement,value
"VASP, recombinant, cleaved from GST (natural protein, human, UniProt P50552 1-380, looked up, also called purified VASP; recombinant human VASP) MSETVICSSRATVMLYDDGNKRWLPAGTGPQAFSRVQIYHNPTANSFRVVGRKMQPDQQVVINCAIVRGVKYNQATPNFHQWRDARQVWGLNFGSKEDAAQFAAGMASALEALEGGGPPPPPALPTWSVPNGPSPEEVEQQKRQQPGPSEHIERRVSNAGGPPAPPAGGPPPPPGPPPPPGPPPPPGLPPSGVPAAAHGAGGGPPPAPPLPAAQGPGGGGAGAPGLAAAIAGAKLRKVSKQEEASGGPTAPKAESGRSGGGGLMEEMNAMLARRRKATQVGEKTPKDESANQEEPEARVPAQSESVRRPWEKNSTTLPRMKSSSSVTTSETQPCTPSSSDYSDLQRVKQELLEEVKKELQKVKEEIIEAFVQELRKRGSP",Kd,12.5 nM
